According to the supplement of paper PMC9112550, “Optimization of the antimicrobial peptide Bac7 by deep mutational scanning” (BMC Biology, 2022):

System: Escherichia coli TOP10
Experiment: shrunken log2 fold change of peptide-encoding DNA abundance (4.5 h post-induction vs induction); higher = less antimicrobial activity (less host growth inhibition)
Settings: time post-induction: 4.5 h; library: site-saturation at positions 5, 18, 19, 20
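Also: peptides expressed intracellularly from a pBAD plasmid library in pooled LB shake-flask culture, induced with 0.3% L-arabinose, DNA abundance read by NGS, three biological replicates, DESeq2 with apeglm shrinkage.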

Q: How did the “shrunken log2 fold change” value turn out when RRIRQRPPRLPRPRPRPENAPRP was run?
A: Its value is 0.242.

Q: RRIRCRPPRLPRPRPRPIHYPRP was tested. Which “shrunken log2 fold change” value did it give?
A: The value was -0.95.

Q: How did the “shrunken log2 fold change” value turn out when RRIRIRPPRLPRPRPRPGAIPRP was run?
A: The value was -0.0678.

Q: Which “shrunken log2 fold change” value does the source give for RRIRYRPPRLPRPRPRPSNHPRP here?
A: The value was -0.29.

Q: With RRIRMRPPRLPRPRPRPSENPRP as the sequence, how does the “shrunken log2 fold change” value read?
A: Its value is -0.0243.

Q: With RRIRQRPPRLPRPRPRPMTTPRP as the sequence, how does the “shrunken log2 fold change” value read?
A: The value was 3.23.

Q: Which “shrunken log2 fold change” value does the source give for RRIRGRPPRLPRPRPRPKQMPRP here?
A: The value was 1.03.

Q: For RRIRDRPPRLPRPRPRPPFIPRP, which “shrunken log2 fold change” value is on record?
A: The value was -0.533.

Q: How did the “shrunken log2 fold change” value turn out when RRIRNRPPRLPRPRPRPNPHPRP was run?
A: The value was -0.116.

Q: With RRIRQRPPRLPRPRPRPRWMPRP as the sequence, how does the “shrunken log2 fold change” value read?
A: The value was 0.0157.

Q: Which “shrunken log2 fold change” value does the source give for RRIRLRPPRLPRPRPRPGDPPRP here?
A: Its value is 0.251.

Q: Which “shrunken log2 fold change” value does the source give for RRIRYRPPRLPRPRPRPQRPPRP here?
A: Its value is 0.376.

Q: RRIRYRPPRLPRPRPRPPHEPRP was tested. Which “shrunken log2 fold change” value did it give?
A: The value was -0.125.

Q: Which “shrunken log2 fold change” value does the source give for RRIRERPPRLPRPRPRPSHLPRP here?
A: Its value is -0.188.

Q: With RRIRDRPPRLPRPRPRPKIWPRP as the sequence, how does the “shrunken log2 fold change” value read?
A: The value was 0.127.

Q: Which “shrunken log2 fold change” value does the source give for RRIRCRPPRLPRPRPRPSLSPRP here?
A: Its value is -0.429.

Q: How did the “shrunken log2 fold change” value turn out when RRIRQRPPRLPRPRPRPPLAPRP was run?
A: Its value is 0.691.

Q: How did the “shrunken log2 fold change” value turn out when RRIRDRPPRLPRPRPRPKSVPRP was run?
A: The value was 0.0458.

Q: With RRIRMRPPRLPRPRPRPHVGPRP as the sequence, how does the “shrunken log2 fold change” value read?
A: The value was 0.105.

Q: How did the “shrunken log2 fold change” value turn out when RRIRKRPPRLPRPRPRPEGFPRP was run?
A: The value was 0.802.

Q: With RRIRTRPPRLPRPRPRPIAPPRP as the sequence, how does the “shrunken log2 fold change” value read?
A: Its value is -0.0608.

Q: With RRIRFRPPRLPRPRPRPSTYPRP as the sequence, how does the “shrunken log2 fold change” value read?
A: Its value is -0.802.

Q: How did the “shrunken log2 fold change” value turn out when RRIRYRPPRLPRPRPRPVCLPRP was run?
A: Its value is -0.365.

Q: For RRIRTRPPRLPRPRPRPHGSPRP, which “shrunken log2 fold change” value is on record?
A: The value was -0.01.

Q: How did the “shrunken log2 fold change” value turn out when RRIRSRPPRLPRPRPRPHYAPRP was run?
A: The value was -0.247.

Q: With RRIRDRPPRLPRPRPRPHKAPRP as the sequence, how does the “shrunken log2 fold change” value read?
A: The value was -0.0142.

Q: How did the “shrunken log2 fold change” value turn out when RRIRYRPPRLPRPRPRPRTDPRP was run?
A: The value was -0.0428.

Q: RRIRLRPPRLPRPRPRPIPMPRP was tested. Which “shrunken log2 fold change” value did it give?
A: The value was 0.0494.

Q: Which “shrunken log2 fold change” value does the source give for RRIRPRPPRLPRPRPRPPKDPRP here?
A: The value was 0.225.

Q: For RRIRYRPPRLPRPRPRPDAHPRP, which “shrunken log2 fold change” value is on record?
A: The value was -0.0156.

Q: Which “shrunken log2 fold change” value does the source give for RRIRHRPPRLPRPRPRPHSQPRP here?
A: The value was -0.224.

Q: RRIRDRPPRLPRPRPRPVVAPRP was tested. Which “shrunken log2 fold change” value did it give?
A: The value was 0.725.

Q: With RRIRTRPPRLPRPRPRPVQSPRP as the sequence, how does the “shrunken log2 fold change” value read?
A: The value was -0.00991.

Q: With RRIRLRPPRLPRPRPRPMMGPRP as the sequence, how does the “shrunken log2 fold change” value read?
A: The value was -0.0316.

Q: RRIRDRPPRLPRPRPRPHAIPRP was tested. Which “shrunken log2 fold change” value did it give?
A: Its value is -0.0018.

Q: How did the “shrunken log2 fold change” value turn out when RRIRIRPPRLPRPRPRPWAKPRP was run?
A: Its value is -0.235.

Q: For RRIRHRPPRLPRPRPRPWCWPRP, which “shrunken log2 fold change” value is on record?
A: The value was 0.0593.

Q: Which “shrunken log2 fold change” value does the source give for RRIRHRPPRLPRPRPRPFAEPRP here?
A: The value was -0.0659.

Q: How did the “shrunken log2 fold change” value turn out when RRIRQRPPRLPRPRPRPNKGPRP was run?
A: The value was -0.0896.

Q: Which “shrunken log2 fold change” value does the source give for RRIRNRPPRLPRPRPRPHFLPRP here?
A: The value was -0.217.

Q: How did the “shrunken log2 fold change” value turn out when RRIRHRPPRLPRPRPRPVMGPRP was run?
A: Its value is 0.0268.

Q: How did the “shrunken log2 fold change” value turn out when RRIRMRPPRLPRPRPRPPKWPRP was run?
A: The value was 0.315.

Q: How did the “shrunken log2 fold change” value turn out when RRIRMRPPRLPRPRPRPAEHPRP was run?
A: Its value is -0.0575.

Q: With RRIRYRPPRLPRPRPRPVNRPRP as the sequence, how does the “shrunken log2 fold change” value read?
A: Its value is -0.655.

Q: For RRIRFRPPRLPRPRPRPYDQPRP, which “shrunken log2 fold change” value is on record?
A: Its value is -0.0152.

Q: RRIRYRPPRLPRPRPRPQCWPRP was tested. Which “shrunken log2 fold change” value did it give?
A: The value was -0.321.

Q: With RRIRTRPPRLPRPRPRPWPTPRP as the sequence, how does the “shrunken log2 fold change” value read?
A: Its value is 0.371.

Q: RRIRYRPPRLPRPRPRPQSRPRP was tested. Which “shrunken log2 fold change” value did it give?
A: The value was -0.17.

Q: How did the “shrunken log2 fold change” value turn out when RRIRPRPPRLPRPRPRPTSHPRP was run?
A: Its value is -0.235.

Q: How did the “shrunken log2 fold change” value turn out when RRIRGRPPRLPRPRPRPTEAPRP was run?
A: Its value is -0.0279.

Q: For RRIRVRPPRLPRPRPRPRKAPRP, which “shrunken log2 fold change” value is on record?
A: Its value is -0.124.

Q: For RRIRYRPPRLPRPRPRPETNPRP, which “shrunken log2 fold change” value is on record?
A: Its value is 0.0266.

Q: With RRIRFRPPRLPRPRPRPIDAPRP as the sequence, how does the “shrunken log2 fold change” value read?
A: Its value is -0.289.

Q: RRIRARPPRLPRPRPRPDAWPRP was tested. Which “shrunken log2 fold change” value did it give?
A: Its value is 1.05.

Q: Which “shrunken log2 fold change” value does the source give for RRIRSRPPRLPRPRPRPCWWPRP here?
A: Its value is 0.159.

Q: RRIRHRPPRLPRPRPRPNNPPRP was tested. Which “shrunken log2 fold change” value did it give?
A: Its value is -0.874.

Q: Which “shrunken log2 fold change” value does the source give for RRIRQRPPRLPRPRPRPEVQPRP here?
A: Its value is -0.0138.

Q: RRIRTRPPRLPRPRPRPNHNPRP was tested. Which “shrunken log2 fold change” value did it give?
A: Its value is -0.914.

Q: Which “shrunken log2 fold change” value does the source give for RRIRERPPRLPRPRPRPPWDPRP here?
A: The value was -0.0062.

Q: For RRIRGRPPRLPRPRPRPNGHPRP, which “shrunken log2 fold change” value is on record?
A: Its value is 0.197.

Q: RRIRIRPPRLPRPRPRPGATPRP was tested. Which “shrunken log2 fold change” value did it give?
A: Its value is -0.0576.

Q: How did the “shrunken log2 fold change” value turn out when RRIRMRPPRLPRPRPRPPEHPRP was run?
A: The value was 0.353.

Q: RRIRQRPPRLPRPRPRPTPRPRP was tested. Which “shrunken log2 fold change” value did it give?
A: The value was 0.843.

Q: RRIRKRPPRLPRPRPRPQAGPRP was tested. Which “shrunken log2 fold change” value did it give?
A: The value was -0.00963.

Q: How did the “shrunken log2 fold change” value turn out when RRIRYRPPRLPRPRPRPVIYPRP was run?
A: The value was -0.0529.

Q: Which “shrunken log2 fold change” value does the source give for RRIRMRPPRLPRPRPRPQCWPRP here?
A: Its value is 0.14.

Q: RRIRLRPPRLPRPRPRPEGSPRP was tested. Which “shrunken log2 fold change” value did it give?
A: Its value is -0.0436.

Q: How did the “shrunken log2 fold change” value turn out when RRIRCRPPRLPRPRPRPHVLPRP was run?
A: The value was -0.172.

Q: How did the “shrunken log2 fold change” value turn out when RRIRSRPPRLPRPRPRPIEAPRP was run?
A: Its value is 0.137.

Q: RRIRVRPPRLPRPRPRPHHHPRP was tested. Which “shrunken log2 fold change” value did it give?
A: The value was -0.611.

Q: How did the “shrunken log2 fold change” value turn out when RRIRRRPPRLPRPRPRPYFSPRP was run?
A: The value was -0.122.

Q: For RRIRQRPPRLPRPRPRPRRFPRP, which “shrunken log2 fold change” value is on record?
A: The value was 0.222.

Q: RRIRNRPPRLPRPRPRPICAPRP was tested. Which “shrunken log2 fold change” value did it give?
A: The value was 0.0914.

Q: How did the “shrunken log2 fold change” value turn out when RRIRPRPPRLPRPRPRPPSKPRP was run?
A: The value was 0.105.

Q: RRIRTRPPRLPRPRPRPELQPRP was tested. Which “shrunken log2 fold change” value did it give?
A: The value was -0.0178.
